Laboratory results published in US20100256056A1.
Like-named read-outs stand apart in the source and are kept apart here.

How the values were obtained:
[1] = biological target: human GLP-1 (hGLP-1) receptor (human) (UniProt P43220)
[2] = biological target: human GLP-1 (hGLP-1) receptor (human) (UniProt P43220); remark: listed apart in the source

Sequence of human GLP-1 (hGLP-1) receptor (human) (P43220 24-463): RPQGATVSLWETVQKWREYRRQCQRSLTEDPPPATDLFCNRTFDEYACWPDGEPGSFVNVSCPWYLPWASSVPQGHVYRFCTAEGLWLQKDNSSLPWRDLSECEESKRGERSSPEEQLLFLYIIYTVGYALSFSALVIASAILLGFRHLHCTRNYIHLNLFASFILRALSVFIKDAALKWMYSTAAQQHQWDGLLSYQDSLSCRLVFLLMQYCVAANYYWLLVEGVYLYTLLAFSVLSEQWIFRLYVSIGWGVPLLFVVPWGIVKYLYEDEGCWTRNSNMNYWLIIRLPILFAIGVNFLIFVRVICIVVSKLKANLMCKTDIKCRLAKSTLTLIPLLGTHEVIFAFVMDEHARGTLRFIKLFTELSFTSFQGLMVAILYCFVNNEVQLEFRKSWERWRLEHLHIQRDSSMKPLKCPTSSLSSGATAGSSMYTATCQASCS

| Substance | hGLP-1 cAMP* [1] | hGLP-1 cAMP* [2] |
| --- | --- | --- |
| [Aib^2,29, Nle^14, Arg^30]Exendin-4(1-30)-NH2 (peptide) | 95 |  |
| [Aib^2, Nle^14, β-Ala^29, Arg^30]Exendin-4(1-30)-NH2 (peptide) |  | 90 |
| [Aib^2, Nle^14]Exendin-4(1-39)-NH2 (peptide) |  | 62 |
